Measurements as given in publication PMC6233201 (Scientific Reports, 2018).

Molecular target: the molecule itself
Experiment: SEC; gel filtration (Superdex 200 10/300 GL) of the Ni-NTA purified DEDs; self-association read from the elution position (monomer, dimer, oligomer peaks)

B1: wild-type death effector domains (DEDs) of human caspase-8 (residues 1-188) with a C-terminal His6 tag (domain or fragment, UniProt Q14790-1 1-188, looked up)
chain: MDFSRNLYDIGEQLDSEDLASLKFLSLDYIPQRKQEPIKDALMLFQRLQEKRMLEESNLSFLKELLFRINRLDLLITYLNTRKEEMERELQTPGRAQISAYRVMLYQISEEVSRSELRSFKFLLQEEISKCKLDDDMNLLDIFIEMEKRVILGEGKLDILKRVCAQINKSLLKIINDYEEFSKERSSS
notes: tandem death effector domains (DED) of human caspase-8, residues 1-188, UniProt Q14790-1; The soluble protein was mixed with E. coli slyD after purification; also called DED^WT; wild-type DEDs; source: E. coli Rosetta (DE3) pLysS, pET-21b, purified (Ni-NTA, gel filtration); very low yields of soluble protein; not shown: His6, C-terminal, kept
binding result: binds
